According to US20120311745A1:

Biological target: receptor protein(s) / binding site of Cry1Ab core toxin on Brush Border Membrane Vesicles (BBMV's) f (Spodoptera frugiperda)

Cry1Ab core toxin protein (activated core toxin prepared by trypsin digestion of the Cry1Ab protein) (from UniProt P0A370 29-612)
IC50: 5 nM
